Patent US20180209983A1 (SUBDOMAIN, published 2018)

Biological target: T1, purified recombinant PD-L1-Fc protein (UniProt Q9NZQ7 19-238)
T1 construct: also called B7-H1; not shown: Fc portion
Experiment: phage ELISA; signal on target-Fc over non-specific control (e.g. IgG1-Fc)
Description: (§1) Selections were also performed using F1, F2, F3, C1 & C2 trinucleotide phosphoramidite libraries. In most cases, libraries were pooled prior to use in selection. By combining equal volumes of the individual libraries, Pool F (libraries F1, F2 and F3) and Pool C (libraries C1 and C2) were generated. These libraries were used in selections for DBDpp binders to 4-1BB/CD137 as well as a larger panel of purified recombinant “target”-Fc proteins, including CD47, CTLA4, DR5, KIR, LAG3, OX40, PD1, PD-L1 and TIM3. (Many of these targets are considered immuno-regulatory factors (Pardoll et al., Nat. Rev. Cancer 12:252-264 (2012)). After incubation of the target with the pools of DBDpp phage libraries, bound phage-target complexes were captured and separated from unbound phage with protein A beads (target proteins were Fc fusions). After three rounds of selection, rescued phage clones were screened by ELISA for binding to the selected target.
(§2) For each target, approximately 90 DBDpp phage clones were screened by ELISA for binding to the target protein and as well as a non-specific control (e.g., IgG1-Fc). […] In some instances, for the ELISA screening plate in which the majority of DBDpp clones were positive, the entire plate was sequenced.

T1 sequence (Q9NZQ7 19-238 limits assumed): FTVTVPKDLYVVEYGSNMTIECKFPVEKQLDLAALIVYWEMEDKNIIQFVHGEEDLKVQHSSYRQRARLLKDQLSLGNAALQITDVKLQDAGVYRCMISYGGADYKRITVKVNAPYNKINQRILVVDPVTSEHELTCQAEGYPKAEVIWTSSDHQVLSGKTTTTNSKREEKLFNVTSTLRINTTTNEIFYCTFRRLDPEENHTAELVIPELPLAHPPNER

| Binder | ELISA ratio |
| --- | --- |
| DBDpp of SEQ ID NO: 61, phage-displayed (designed binder, F3 library; rescued M13 phage clone, DBDpp fused to pIII) MGSWYEFDDRLNAIHDRLQALGGSEAELAAFEKEIAAFESELQAYKGKGNPEVEDLRDDAAFIRRFLQAYRHN | 12.2 |
| DBDpp of SEQ ID NO: 60, phage-displayed (designed binder, F3 library; rescued M13 phage clone, DBDpp fused to pIII) MGSWYEFTVRLEAIHERLKALGGSEAELAAFEKEIAAFESELQAYKGKGNPEVEILRDDAAFIRRFLQAYRHN | 17.3 |

Biological target: purified recombinant KIR-Fc protein
Experiment: as above

| Binder | ELISA ratio |
| --- | --- |
| DBDpp of SEQ ID NO: 37, phage-displayed (designed binder) MGSWLWFKIFLAEIKYFLEALGGSEAELAAFDFEIHAFHVELFAYKGKGNPEVEVLREVAAEIRWDLQAYRHN | 4.17 |

Biological target: purified recombinant KIR-Fc protein
Experiment: phage ELISA; signal on target-Fc over non-specific control (e.g. IgG1-Fc); average where several clones

| Binder | ELISA ratio |
| --- | --- |
| DBDpp of SEQ ID NO: 36, phage-displayed (designed binder) MGSWYEFYNRLYAIEIRLYALGGSEAELAAFEKEIAAFESELQAYKGKGNPEVERLRVRAAKIRVILQAYRHN | 4.24 |
| DBDpp of SEQ ID NO: 35, phage-displayed (designed binder) MGSWSEFYNRLDAIESRLLALGGSEAELALFEIQIARFEKVLQAYKGKGNPEVEALRGEARAIFAELYAYRHN | 8.4 |

Biological target: T2, purified recombinant PD1-Fc protein (UniProt Q15116 25-167, limits assumed)
T2 construct: not shown: Fc portion
T2 sequence (Q15116 25-167 limits assumed): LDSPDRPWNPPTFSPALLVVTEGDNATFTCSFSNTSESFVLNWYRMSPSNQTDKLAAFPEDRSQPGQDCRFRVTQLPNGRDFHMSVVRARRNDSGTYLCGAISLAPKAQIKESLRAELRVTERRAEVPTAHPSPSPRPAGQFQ
Experiment: as above
Description: as §1, §2

| Binder | ELISA ratio |
| --- | --- |
| DBDpp of SEQ ID NO: 48, phage-displayed (designed binder, F1 library; rescued M13 phage clone, DBDpp fused to pIII) MGSWYAFKDYLADIKGWLEALGGSEAELAFFEIFIARFELELQAYKGKGNPEVEALRKEAAAIRDELQAYRHN | 3.29 |
| DBDpp of SEQ ID NO: 46, phage-displayed (designed binder, F1 library; rescued M13 phage clone, DBDpp fused to pIII) MGSWTIFKEWLAFIKTDLEALGGSEAELAFFEGWIASFEMELQKYKGKGNPEVEALRKEAAAIRDELQAYRHN | 17.1 |
| DBDpp of SEQ ID NO: 47, phage-displayed (designed binder, F1 library; rescued M13 phage clone, DBDpp fused to pIII) MGSWVMFKWLLADIKSHLEALGGSEAELAFFEGFIAAFETHLQVYKGKGNPEVEALRKEAAAIRDELQAYRHN | 8.13 |

Biological target: T3, purified recombinant DR5-Fc protein (UniProt O14763-2 56-182, limits assumed)
T3 construct: also called TRAIL-R2; not shown: Fc portion
T3 sequence (O14763 56-182 limits assumed): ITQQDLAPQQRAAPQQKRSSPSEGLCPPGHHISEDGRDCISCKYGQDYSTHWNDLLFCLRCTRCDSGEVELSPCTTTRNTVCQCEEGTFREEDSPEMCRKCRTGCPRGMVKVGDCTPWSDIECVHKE
Experiment: as above
Description: as §1, §2

| Binder | ELISA ratio |
| --- | --- |
| DBDpp of SEQ ID NO: 29, phage-displayed (designed binder, F1 library; rescued M13 phage clone, DBDpp fused to pIII) MGSWFYFKQHLAWIKSYLEALGGSEAELAHFERAIAAFEQHLQMYKGKGNPEVEALRKEAAAIRDELQAYRHN | 11.8 |
| DBDpp of SEQ ID NO: 28, phage-displayed (designed binder, F1 library) MGSWVYFKEHLAWIKTELEALGGSEAELAHFEHSIADFEMSLQFYKGKGNPEVEALRKEAAAIRDELQAYRHN | 12.1 |
| DBDpp of SEQ ID NO: 30, phage-displayed (designed binder, F1 library; rescued M13 phage clone, DBDpp fused to pIII) MGSWHYFKDHLAEIKGLLEALGGSEAELAHFEMAIADFEHNLQYYKGKGNPEVEALRKEAAAIRDELQAYRHN | 11.4 |
| DBDpp of SEQ ID NO: 31, phage-displayed (designed binder, F1 library; rescued M13 phage clone, DBDpp fused to pIII) MGSWHYFKGHLAEIKNHLEALGGSEAELAHFERAIAAFERSLQWYKGKGNPEVEALRKEAAAIRDELQAYRHN | 10.8 |
| DBDpp of SEQ ID NO: 32, phage-displayed (designed binder, F1 library; rescued M13 phage clone, DBDpp fused to pIII) MGSWIYFKEHLAYIKKELEALGGSEAELAHFESAIAVFESTLQYYKGKGNPEVEALRKEAAAIRDELQAYRHN | 10.7 |
| DBDpp of SEQ ID NO: 34, phage-displayed (designed binder, F1 library; rescued M13 phage clone, DBDpp fused to pIII) MGSWWLFKDHLAEIKTALEALGGSEAELAHFEMAIAAFEKQLQYYKGKGNPEVEALRKEAAAIRDELQAYRHN | 9.75 |
| DBDpp of SEQ ID NO: 33, phage-displayed (designed binder, F1 library; rescued M13 phage clone, DBDpp fused to pIII) MGSWTYFKEHLAEIKYMLEALGGSEAELAHFEVAIADFEKMLQYYKGKGNPEVEALRKEAAAIRDELQAYRHN | 10.3 |

Biological target: T4, purified recombinant TIM3-Fc protein (UniProt Q8TDQ0 22-202, limits assumed)
T4 construct: not shown: Fc portion
Experiment: as above
Description: as §1, §2

| Binder | ELISA ratio |
| --- | --- |
| DBDpp of SEQ ID NO: 45, phage-displayed (designed binder, F1 library) MGSWVVFKVDLATIKYILEALGGSEAELAEFEGEIAGFEYSLQFYKGKGNPEVEALRKEAAAIRDELQAYRHN | 5.79 |

Biological target: T1, purified recombinant PD-L1-Fc protein
Experiment: as above
Description: as §1, §2

| Binder | ELISA ratio |
| --- | --- |
| DBDpp of SEQ ID NO: 40, phage-displayed (designed binder, F3 library; rescued M13 phage clone, DBDpp fused to pIII) MGSWYEFQNRLHAIHERLNALGGSEAELAAFEKEIAAFESELQAYKGKGNPEVELLRDDAAFIRHFLQAYRHN | 6.34 |
| DBDpp of SEQ ID NO: 41, phage-displayed (designed binder, F3 library; rescued M13 phage clone, DBDpp fused to pIII) MGSWFEFQDRLTAINERLSALGGSEAELAAFEKEIAAFESELQAYKGKGNPEVETLRSDAAFIRRFLQAYRHN | 6.01 |
| DBDpp of SEQ ID NO: 44, phage-displayed (designed binder, F3 library; rescued M13 phage clone, DBDpp fused to pIII) MGSWFEFENRLHAIVHRLGALGGSEAELAAFEKEIAAFESELQAYKGKGNPEVETLRADAAFIRHYLQAYRHN | 2.76 |
| DBDpp of SEQ ID NO: 39, phage-displayed (designed binder, F3 library; rescued M13 phage clone, DBDpp fused to pIII) MGSWQEFDDRLNAIKARLQALGGSEAELAAFEKEIAAFESELQAYKGKGNPEVEDLRDDAAFIRRFLQAYRHN | 7.41 |
| DBDpp of SEQ ID NO: 38, phage-displayed (designed binder, F3 library; rescued M13 phage clone, DBDpp fused to pIII) MGSWTEFQSRLDAIHSRLRALGGSEAELAAFEKEIAAFESELQAYKGKGNPEVELLRDDAAFIRHFLQAYRHN | 8.68 |
| DBDpp of SEQ ID NO: 43, phage-displayed (designed binder, F3 library; rescued M13 phage clone, DBDpp fused to pIII) MGSWYEFNHRLDAISKRLNALGGSEAELAAFEKEIAAFESELQAYKGKGNPEVEELRGDAAFIRHFLQAYRHN | 2.98 |
| DBDpp of SEQ ID NO: 42, phage-displayed (designed binder, F3 library; rescued M13 phage clone, DBDpp fused to pIII) MGSWYEFESRLDAIHERLHALGGSEAELAAFEKEIAAFESELQAYKGKGNPEVENLRGDAAFIRHFLQAYRHN | 4.88 |

Biological target: T5, recombinant, biotinylated, Human 4-1BB/TNFRSF9/CD137-Fc (human, UniProt Q07011 24-186, biotinylated (site not stated))
T5 construct: Selection and screening target of the phage ELISA; also called 4-1BB/CD137; not shown: Fc portion
T5 sequence (Q07011 24-186 limits assumed): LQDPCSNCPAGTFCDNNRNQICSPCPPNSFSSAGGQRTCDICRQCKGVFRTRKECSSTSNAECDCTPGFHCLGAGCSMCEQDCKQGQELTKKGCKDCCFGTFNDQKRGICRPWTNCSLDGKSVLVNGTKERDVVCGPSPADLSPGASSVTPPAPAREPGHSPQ
Experiment: phage ELISA of rescued clones on human CD137-Fc
Source text: The F2NNK DBD library was used in five rounds of selection against recombinant, biotinylated, Human 4-1BB/TNFRSF9/CD137-Fc.

| Binder | fold of ELISA OD over control (IgG Fc) [fold] |
| --- | --- |
| bb10 (DBDpp clone from the F2NNK library), phage-displayed (designed binder, Tested as rescued M13 phage; In the F2NNK library the DBDpp carries an N-terminal FLAG tag and is fused at its C-terminus to M13 pIII (pComb phagemid); also called the 89 clones) MGSWAEFKQRLAAIKTRLEALGGSEAELAAFLGEIWAFEMELAAYKGKGNPEVEALGREAAAIRMELQAYRHN | 5.3 |
